Data on 17 proteins can be found in patent US20250027068.

To fix the notation:
B1: PRT-310 (protein)
chain: MQITSVWTKGVTPLTPEQFRENNEDVIHAPYLAHQGWYDITKAFDGKDNLLCGAATAGNMLHWWFDQNKTEIEAYLSKHPEKQKIIFNNQELFDLKAAIDTKDSQTNSQLFDYFRDKAFPNLSARQLGVMPDLVLDMFINGYYLNVFKTQSTDVNRPYQDKDKRGGIFDAVFTRGDQTTLLTARHDLKNKGLNDISTIIKQELTEGRALALSHTYANVSISHVINLWGADFDAEGNLEAIYVTDSDANASIGMKKYFVGRNAHGHVAISAKKIEGENIGAQVLGLFTLSSGKDQWQKLS
B2: PRT-311 (protein)
chain: B1 chain with L92W, D112N, F147P, D232N, F257A, R260I, Q294I
B3: PRT-312 (protein)
chain: B1 chain with N88G, D112N, F147G, D232N, A249P, Q294I
B4: PRT-325 (protein)
chain: MTITSVWTKGVTPPTPEDFRENNEDVLHAPYVANQGWYDITKTFDGKDNLLCGAATAGNMLHWWFDQNKEEIERYLKKHPEKQKIIFGNQELFDVKAAIDTKDSQTNSKLFDYFRDKAFPNLSARQLGVMPDLVLDMFINGYYLNLGKTQSTDVNRPYQDKDKRGGIFDAVFTRGDQTTLLTARHDLKNKGLNEISDLIKQELTEGKALALSHTYANVRINHVINLWGADFDAEGELIAIYVTDSDANPSIGMKKYFVGRNANGKVAISAKKIEGDNIGAQVLGLFTLSTGQDIWQKLS
B5: PRT-327 (protein)
chain: B4 chain with G88N
B6: PRT-319 (protein)
chain: B4 chain with G88N, E236N, P249A, T290L
B7: PRT-320 (protein)
chain: B4 chain with E236N, P249A, I294Q
B8: PRT-326 (protein)
chain: B4 chain with I294Q
B9: PRT-328 (protein)
chain: B4 chain with E21K, G88N, D112N, N121G, M130F, D176V, E236N, P249A
B10: PRT-318 (protein)
chain: B4 chain with E21Y, G88N, L92W, E236N, P249A, R260V, T290L
B11: PRT-333 (protein)
chain: B4 chain with D112N, N121G, M130F, D176V, E236N
B12: PRT-294 (protein)
chain: MVTSVWTKGVTPPADFTQGEDVFHAPYDANQGWYDITKTFNGKDDLLCGAATAGNMLHWWFDQNKEYIEAYLKKHPEKQKIMFGDQELLDVRKAINTKGSQKNSELFNYFRDKAFPNLSARRLGVMPDLVLDMFINGYYLNVTKTQTTDVNRTYQEKDKRGGIFDAVFTRGDQSKLLTSRHDFKEKGLKEISDLIKQELTEGKALGLSHTYANVRISHVINLWGADFDSDGNLKAIYVTDSDSNASIGMKKYGVGVNSAGKVAISAKEIKEDNIGAQVLGLFTLSTGQDIWNQTN
B13: PRT-295 (protein)
chain: B12 chain with G253F, A259S
B14: PRT-296 (protein)
chain: B12 chain with D28V, T39E, S217G
B15: PRT-302 (protein)
chain: B12 chain with A14T, T17I, Q18K, D28K, N30G, I216L, S217N
B16: PRT-303 (protein)
chain: B12 chain with A14T, T17I, Q18K, N30G
B17: PRT-304 (protein)
chain: B12 chain with A14T, T17I, Q18K, N30G, G253F, A259S

Changes are numbered by the printed parent chain.

The data set has as its target pooled human IgG (human IgG1,2,3 and 4).
The protein B1 gave an Enzyme Activity Endpoint Assay (purified): Fab'2 of 1220 ng/µL, an Enzyme Activity Endpoint Assay (purified): Fc of 488 ng/µL, an Enzyme Activity Endpoint Assay (purified): IgG of 0 ng/µL and an Enzyme Activity Endpoint Assay (purified): scIgG of 0 ng/µL.
For B2, the Enzyme Activity Endpoint Assay (purified): Fab'2 came out at 261 ng/µL, the Enzyme Activity Endpoint Assay (purified): Fc amounted to 295 ng/µL, the Enzyme Activity Endpoint Assay (purified): IgG is 109 ng/µL and the Enzyme Activity Endpoint Assay (purified): scIgG was found to be 496 ng/µL.
For B3 the same measures were 703 ng/µL, 330 ng/µL, 53 ng/µL and 54 ng/µL.
For B4, in that order: 930 ng/µL, 466 ng/µL, 78 ng/µL and 0 ng/µL.
For B5, in that order: 460 ng/µL, 338 ng/µL, 472 ng/µL and 0 ng/µL.
B6 displayed an Enzyme Activity Endpoint Assay (purified): Fab'2 of 670 ng/µL, an Enzyme Activity Endpoint Assay (purified): Fc of 372 ng/µL, an Enzyme Activity Endpoint Assay (purified): IgG of 32 ng/µL and an Enzyme Activity Endpoint Assay (purified): scIgG of 0 ng/µL.
In the case of B7, the Enzyme Activity Endpoint Assay (purified): Fab'2 amounted to 778 ng/µL, the Enzyme Activity Endpoint Assay (purified): Fc was found to be 339 ng/µL, the Enzyme Activity Endpoint Assay (purified): IgG was 53 ng/µL and the Enzyme Activity Endpoint Assay (purified): scIgG came out at 0 ng/µL.
For B8, in that order: 588 ng/µL, 429 ng/µL, 458 ng/µL and 0 ng/µL.
For B9, in that order: 1000 ng/µL, 455 ng/µL, 75 ng/µL and 0 ng/µL.
On to B10, for which the Enzyme Activity Endpoint Assay (purified): Fab'2 turned out to be 641 ng/µL, the Enzyme Activity Endpoint Assay (purified): Fc is 365 ng/µL, the Enzyme Activity Endpoint Assay (purified): IgG was 110 ng/µL and the Enzyme Activity Endpoint Assay (purified): scIgG turned out to be 100 ng/µL.
For B11 the same measures were 794 ng/µL, 448 ng/µL, 0 ng/µL and 0 ng/µL.
For B12, in that order: 651 ng/µL, 456 ng/µL, 506 ng/µL and 5 ng/µL.
For B13, in that order: 529 ng/µL, 398 ng/µL, 446 ng/µL and 0 ng/µL.
For the protein B14, the Enzyme Activity Endpoint Assay (purified): Fab'2 was 955 ng/µL, the Enzyme Activity Endpoint Assay (purified): Fc came out at 443 ng/µL, the Enzyme Activity Endpoint Assay (purified): IgG came to 0 ng/µL and the Enzyme Activity Endpoint Assay (purified): scIgG came to 0 ng/µL.
B15 came in with an Enzyme Activity Endpoint Assay (purified): Fab'2 of 1130 ng/µL, an Enzyme Activity Endpoint Assay (purified): Fc of 461 ng/µL, an Enzyme Activity Endpoint Assay (purified): IgG of 0 ng/µL and an Enzyme Activity Endpoint Assay (purified): scIgG of 0 ng/µL.
In turn, B16 had an Enzyme Activity Endpoint Assay (purified): Fab'2 of 1080 ng/µL, an Enzyme Activity Endpoint Assay (purified): Fc of 482 ng/µL, an Enzyme Activity Endpoint Assay (purified): IgG of 0 ng/µL and an Enzyme Activity Endpoint Assay (purified): scIgG of 0 ng/µL.
On to B17, for which the Enzyme Activity Endpoint Assay (purified): Fab'2 was determined as 711 ng/µL, the Enzyme Activity Endpoint Assay (purified): Fc stood at 320 ng/µL, the Enzyme Activity Endpoint Assay (purified): IgG is 0 ng/µL and the Enzyme Activity Endpoint Assay (purified): scIgG amounted to 0 ng/µL.
